Reference: patent publication WO2009138494A2 (dated 2009)
Numbering of substitutions follows the chain as printed. Blank lines part the entries; values can stand above or below the binder they belong to.

Columns and labels:
[1] = molecular target: T1, recombinant murine TLR2/Fc chimera, R&D Systems cat no: 1530-TR (murine, UniProt Q9QUN7 25-587); assay: ELISA: TLR coated at 2 ug/ml, periplasmic extract of the clone, anti-VHH detection, OD against no-Nanobody control
T1 construct: Bought Fc chimera, coated on ELISA plates; also called mTLR2/Fc; mTLR2; not shown: Fc part of the chimera
T1 sequence (looked up): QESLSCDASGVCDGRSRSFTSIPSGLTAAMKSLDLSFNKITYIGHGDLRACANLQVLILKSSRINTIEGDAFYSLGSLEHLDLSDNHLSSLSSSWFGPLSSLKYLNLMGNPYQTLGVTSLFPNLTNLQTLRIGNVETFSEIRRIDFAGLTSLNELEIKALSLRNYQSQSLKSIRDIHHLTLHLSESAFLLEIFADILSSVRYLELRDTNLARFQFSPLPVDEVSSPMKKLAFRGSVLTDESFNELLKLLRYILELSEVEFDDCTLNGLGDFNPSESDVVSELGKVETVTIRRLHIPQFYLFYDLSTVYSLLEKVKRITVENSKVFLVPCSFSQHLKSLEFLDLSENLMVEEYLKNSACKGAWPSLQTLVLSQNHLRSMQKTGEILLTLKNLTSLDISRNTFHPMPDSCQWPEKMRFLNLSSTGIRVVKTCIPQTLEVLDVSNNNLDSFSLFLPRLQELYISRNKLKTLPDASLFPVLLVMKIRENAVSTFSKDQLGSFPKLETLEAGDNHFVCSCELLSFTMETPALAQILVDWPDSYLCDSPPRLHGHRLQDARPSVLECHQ

[2] = molecular target: T2, recombinant human TLR4/MD2 (rhTLR4/MD2), R&D Systems cat no: 3146-TM/CF (human, UniProt O00206 24-631; Q9Y6Y9 17-160, limits assumed); assay: as above
T2 construct: Bought protein, coated on ELISA plates
T2 sequence (O00206 24-631 limits assumed, chain 1 of 2): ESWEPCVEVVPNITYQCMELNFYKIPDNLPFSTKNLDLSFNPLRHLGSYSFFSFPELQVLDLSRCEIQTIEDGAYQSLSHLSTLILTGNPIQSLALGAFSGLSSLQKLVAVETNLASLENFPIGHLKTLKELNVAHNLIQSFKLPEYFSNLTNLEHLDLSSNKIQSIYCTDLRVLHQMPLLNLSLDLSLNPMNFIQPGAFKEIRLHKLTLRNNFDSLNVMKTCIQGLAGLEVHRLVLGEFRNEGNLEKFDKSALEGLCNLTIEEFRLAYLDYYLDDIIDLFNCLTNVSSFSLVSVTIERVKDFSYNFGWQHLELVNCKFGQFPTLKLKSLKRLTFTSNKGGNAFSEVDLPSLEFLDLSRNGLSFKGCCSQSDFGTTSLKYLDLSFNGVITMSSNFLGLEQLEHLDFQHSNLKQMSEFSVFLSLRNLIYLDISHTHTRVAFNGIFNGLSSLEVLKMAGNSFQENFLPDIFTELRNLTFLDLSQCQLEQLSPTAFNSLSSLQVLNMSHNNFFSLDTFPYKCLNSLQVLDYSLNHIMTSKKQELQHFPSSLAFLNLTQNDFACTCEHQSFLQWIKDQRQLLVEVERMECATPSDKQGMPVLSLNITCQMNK
T2 sequence (Q9Y6Y9 17-160 limits assumed, chain 2 of 2): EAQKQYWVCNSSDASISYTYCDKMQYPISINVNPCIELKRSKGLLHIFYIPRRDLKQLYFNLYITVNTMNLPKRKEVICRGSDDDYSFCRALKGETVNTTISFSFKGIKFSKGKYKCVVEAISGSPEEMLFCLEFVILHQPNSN

binding result [1]: binds
B1: 161-F4 (VHH)
VHH: EVQLVESGGGLVQPGGSLRLSCAASGSIGSGDAMGWYRQPPGKQRERVATITSGGLTVYTESVKGRFAISRDNAKNTVYLQMNSLKPEDTAVYYCNTVNYRVGWGPGTQVTVSS
notes: not shown: C-terminal c-myc tag and (His)6 tag coded by the vector

binding result [1]: binds
B2: 172-E5 (VHH)
VHH: EVQLVESGGGLVQTGGSLRLSCAASGSTFSNAVMGWFRQAPGKEREFVARITWNGGSTYYGDSAKGRFTISRDNAKTTAYLLMNSLQPEDTANYFCAARMRPVFYSTSGQESFYDYWGQGTQVTVSS
notes: as for B1

binding result [1]: binds
B3: 161-A3 (VHH)
VHH: B2 VHH with N31K, N74I, A75G, Y105S, T107S, G109V
notes: as for B1

binding result [1]: binds
B4: 172-F11 (VHH)
VHH: B2 VHH with N31R, T58A, F104S, Y105D, T107S
notes: as for B1

binding result [1]: binds
B5: 161-H1 (VHH)
VHH: EVQLVESGGGLVQAGGSLRLSCAPSRRTFSTYVMGWFRQAPGMEREFVSAISWSSGSTRYADSVKGRFTISRDSVKNTMYLQMNSLKPEDTAVYYCAAGASFGSIFWESAREYNYWGQGTQVTVSS
notes: as for B1

binding result [1]: binds
B6: 172-C6 (VHH)
VHH: EVQLVESGGGVVQAGGSLSLSCAASGRTLSVYAMGWFRQAPGKEREFVATISVSGVYTYYTDSVKARFTISRDNAKNTVYLQMNSLKPEDTAVYYCAAGSKPTFLGSSYDYWGQGTQVTVSS
notes: as for B1

binding result [1]: binds
B7: 172-F7 (VHH)
VHH: EVQLVESGGGLVQAGGSLRLSCAASGRTFSRYVMGWFRQAPGKEREFVAVINWSGGSTDYSTYVKGRFTIFRDNAKNTVFLEMTSLEPEDTAVYYCAAGEYYTGDSSRYDHWGQGTPVTVSS
notes: as for B1

binding result [1]: binds
B8: 172-B7 (VHH)
VHH: B7 VHH with R31S, A49S, W53R, S61A, T62S, Y63S, F71S, F80Y, D105I, H111Y
notes: as for B1

binding result [1]: binds
B9: 161-E1 (VHH)
VHH: B7 VHH with V12A, A49S, W53R
notes: as for B1

binding result [1]: binds
B10: 172-G3 (VHH)
VHH: B7 VHH with E6K, V33I, W53R, S61A, T62S, Y63S, F71S, F80Y, D105S
notes: as for B1

binding result [1]: binds
B11: 172-A12 (VHH)
VHH: B7 VHH with G35S, Y63S, F80Y, M83T, P88L, D105A
notes: as for B1

binding result [1]: binds
B12: 161-F2 (VHH)
VHH: EVQLVESGGGLVQAEGSLRLSCVASGPTFDTYVMGWFRQAPGKEREFVAAINRSGSTDYPDYWDSAKGRFTISRDNAKNTVYLQMTSLRPEDTGVYYCAARKTFYFGTSSYPNDYAYWGQGTQVTVSS
notes: as for B1

binding result [1]: binds
B13: 161-E2 (VHH)
VHH: EVQLVESGGGLVQAGGSLRLSCAASGRAFSSYVMGWFRQTPGKEREFVSVINWSGGSTDYSSSVKGRFTISRDNAKNTVYLQMTSLEPEDTAVYYCAAGQYYTGRSDRYDYWGQGTPVTVSS
notes: as for B1

binding result [1]: binds
B14: 161-A11 (VHH)
VHH: EVQLVESGGGLVQAEGSLRLSCVASGRTFDTYVMGWFRQAPGKEREFVAAINRSGVTDYPDSATGRFTISRENAKNTVYLQGTSLKPEDTGVYYCAARKAFYYGTSSYPNDYAHWGQGTQVTVSS
notes: as for B1

binding result [2]: binds
B15: 107-A7 (VHH)
VHH: EVQLVESGGGLVQAGGSLRLSCVASGRTLSTVNMGWFRQAPGKERDIVARISGSSVSTYYAESVRGRFTISRDNAKNTVYLQMNSLRPEDTGVYYCVADSPGGRSYEYWGQGTQVTVSS
notes: as for B1

binding result [2]: binds
B16: 133-H11 (VHH)
VHH: B15 VHH with T28S, V56I, G92A, Y108F
notes: as for B1

binding result [2]: binds
B17: 107-G9 (VHH)
VHH: B15 VHH with G53P, A61S, R65K, G92A
notes: as for B1

binding result [2]: binds
B18: 107-E9 (VHH)
VHH: B15 VHH with T31S, G53P, R65K
notes: as for B1

binding result [2]: binds
B19: 107-A9 (VHH)
VHH: B15 VHH with V32Y, V79M, S85N, G92A, S100G
notes: as for B1

binding result [2]: binds
B20: 107-C12 (VHH)
VHH: B15 VHH with V56I, G92A
notes: as for B1

binding result [1]: binds
B21: 172-H4 (VHH)
VHH: EVQLVESGGGLVQAGGSLRLSCAASGRTFDSYAMGWFRQAPGKEREFVAAIGYSGTYDADSVKGRFTISRDNAKKTTVYLQMNNLKPEDTAVYYCAAAGTFSTTVGTTTSHYDYWGQGTQVTVSS
notes: as for B1

binding result [1]: binds
B22: 161-H4 (VHH)
VHH: EVQLVESGGGLVQAGGSLRLSCAASGRPDSSYFMGWFRQAPGKEFEFVSRINWIGSNTAYADSVKGRFTISRDNAKNTVYLQMNSLKPEDTAVYFCVATTINSFNSGNYKDPRLWTYWAQGTQVTVSS
notes: as for B1

binding result [1]: binds
B23: 172-B3 (VHH)
VHH: VQLVKSGGGGLVQAGGSLRLSCAASGRTFSRYVMGWFRQAPGKEREFVAVINRSGGSTDYAASVKGRFTIARDNAKNTVYLEMTSLEPEDTAVYYCAAGEYYTGSSSRYDHWGQGTPVTVSS
notes: as for B1

binding result [1]: binds
B24: 172-C1 (VHH)
VHH: EVQLVESGGGLVQAGGSLRLSCAASELAFDFDGYNFAWVRQAPGREREFVSVINRSGGSTDYASSVKGRFTISRDNAKNTVYLQMTSLEPEDTAVYYCAAGPYYTGSSDRYDYWGQGTPVTVSS
notes: as for B1

binding result [1]: binds
B25: 172-C9 (VHH)
VHH: EVQLVESGGGLVQAGGSLRLSCAASGRTYSIDSMAWFRQAPGKERQFLGSILWSDDSTNYADSVKGRFTISRDNAKNTMYLQMGSLKPEDTAVYYCRSWDGRQVYWGQGTQVTVSS
notes: as for B1

binding result [2]: binds
B26: 133-A1 (VHH)
VHH: EVQLVESGGGLVQAGESLRLSCVASGISISTEVMGWYRQAPGKQGESVAIIKTDGSTYYPDSVKGRFAISRDNAKNTVYLAMNSLKLEDTGVYYCIIAGRGRGQGTQVTVSS
notes: as for B1

binding result [2]: binds
B27: 133-H4 (VHH)
VHH: B26 VHH with E6K, A81Q, I96V, A98P, R102P
notes: as for B1

binding result [1]: binds
B28: 172-A1 (VHH)
VHH: EVQLVESGGGLVQAGGSLRLSCTASGRTFSSFVMGWFRQAPGKEREFVAYITLRGGDSPLYADSVKDRFTISRDIAKNLVYLQMNSLKPEDTAVYYCAARYSGGSVYRNDYAYWGQGTQVTVSS
notes: as for B1

binding result [1]: binds
B29: 161-C9 (VHH)
VHH: EVQLVESGGGLVQAEGSLRLSCVASGTHVMGWFRQASGKEREFVAAINRSGSTDYPDSADSAKGRFTISRDNAKNTVYLQMTSLKPEDTGVYYCAARKAFYFGTSSYPSDYAYWGQGTQVTVSS
notes: as for B1
